One protein from FireProtDB (doi:10.1111/j.1432-1033.1995.tb20520.x) can be followed below.

Where “and” joins values, the source holds several entries; their conditions need not be identical. Identical values can stand only once.

For the data set the following is noted: Paenibacillus macerans, pH 6, Sodium cacodylate 2 mM, reversible: yes, whole UniProt chain shown; for unfolding free energy: 25 °C, GdnHCl; for heat capacity change of unfolding / unfolding enthalpy (van 't Hoff) / Tm / unfolding enthalpy (calorimetric): Thermal.

B1: Beta-glucanase wild type, P23904 (protein)
chain: MKKKSCFTLVTTFAFSLIFSVSALAGSVFWEPLSYFNRSTWEKADGYSNGGVFNCTWRANNVNFTNDGKLKLGLTSSAYNKFDCAEYRSTNIYGYGLYEVSMKPAKNTGIVSSFFTYTGPAHGTQWDEIDIEFLGKDTTKVQFNYYTNGVGGHEKVISLGFDASKGFHTYAFDWQPGYIKWYVDGVLKHTATANIPSTPGKIMMNLWNGTGVDDWLGSYNGANPLYAEYDWVKYTSN
By Tm is commonly meant the temperature at the midpoint of the melting transition. Consider B1, for which, under “CD”, the unfolding free energy is 10.3 kcal/mol and 9.01 kcal/mol and 8.6 kcal/mol; the Tm is 51.2 °C and 47.7 °C and 49.7 °C; the “heat capacity change of unfolding” value was 2.01 kcal/mol/K and 1.6 kcal/mol/K and 1.7 kcal/mol/K; the “unfolding enthalpy (van 't Hoff)” value was 154 kcal/mol and 145 kcal/mol and 135 kcal/mol. In addition, for the setting “DSC, CaCl2 1 mM”, the unfolding free energy was 10.4 kcal/mol and 10.5 kcal/mol; the “heat capacity change of unfolding” value was 2.2 kcal/mol/K and 1.79 kcal/mol/K and 2.44 kcal/mol/K; the “unfolding enthalpy (calorimetric)” value was 78.2 kcal/mol and 156 kcal/mol and 87 kcal/mol. In addition, for the setting “DSC”, the unfolding free energy is 10.8 kcal/mol and 9.89 kcal/mol and 8.41 kcal/mol; the midpoint of thermal melting (Tm) is 51.2 °C and 49.3 °C and 46.6 °C; the “heat capacity change of unfolding” value is 2.01 kcal/mol/K and 1.6 kcal/mol/K and 1.7 kcal/mol/K; the “unfolding enthalpy (calorimetric)” value is 161 kcal/mol and 146 kcal/mol and 143 kcal/mol. For the same protein, under “CD, CaCl2 1 mM”, the “heat capacity change of unfolding” value is 2.2 kcal/mol/K and 1.79 kcal/mol/K; the “unfolding enthalpy (van 't Hoff)” value is 162 kcal/mol and 169 kcal/mol and 183 kcal/mol.
